Data taken from patent US20140235698A1, “RNA Aptamer Specifically Binding to Carcinoembryonic Antigen and Use thereof” (POSCO, published 2014).

Legend:
[1] = target: DR5 cloned in the pVP16 vector as an activation-domain fusion (UniProt O14763); assay: cell-based or functional assay
[2] = target: T1, ACEA (CEA/CEACAM5 A1 domain to B3 domain, N domain deleted) (Homo sapiens, UniProt P06731 P06731:145-675); assay: SPR; Biacore 2000; GROUP I member tested not specified (SEQ 1-12); details: tags: pET28a(+), Ni-NTA (His), E. coli BL21
Experimental: (§1) To measure the affinity of RNA to CEA, SPR analysis was performed with Biacore 2000 (GE healthcare) device. Various concentrations of RNAs (GROUP 1, 2, 3 and library in FIG. 2) were flowed on NCEA and ACEA to measure the binding affinity.
(§2) The above value is measured using BIAevaluation program (which is used to analyze graph obtained from BIAcore device).

[3] = target: T2, NCEA (CEA/CEACAM5 N domain to B3 domain) (Homo sapiens, UniProt P06731 P06731:35-675); assay: as above; details: tags: pET28a(+), Ni-NTA (His), E. coli BL21
Experimental: as §1, §2

[4] = target: T1, ACEA (CEA/CEACAM5 A1 domain to B3 …); assay: SPR; Biacore 2000; details: tags: pET28a(+), Ni-NTA (His), E. coli BL21
Experimental: (§3) To measure the affinity of RNA aptamer to CEA, SPR analysis was performed with Biacore 2000 (GE healthcare) device. Various concentrations of RNAs (Trunc. GROUP 1-1 & 1-2 and Mutant GROUP 1-1 & 1-2, Loop-only, Library) were flowed on NCEA and ACEA to measure the binding affinity, which is shown in the following TABLE 4 and FIG. 4.

[5] = target: T2, NCEA (CEA/CEACAM5 N domain to B3 domain); assay: SPR; Biacore 2000; loop mutant, weakened or no binding per text; details: tags: pET28a(+), Ni-NTA (His), E. coli BL21
Experimental: as §3

[6] = target: T2, NCEA (CEA/CEACAM5 N domain to B3 domain); assay: SPR; Biacore 2000; details: tags: pET28a(+), Ni-NTA (His), E. coli BL21; hairpin-loop (predicted)
Experimental: as §3

T2 sequence (P06731 35-675, one chain of several): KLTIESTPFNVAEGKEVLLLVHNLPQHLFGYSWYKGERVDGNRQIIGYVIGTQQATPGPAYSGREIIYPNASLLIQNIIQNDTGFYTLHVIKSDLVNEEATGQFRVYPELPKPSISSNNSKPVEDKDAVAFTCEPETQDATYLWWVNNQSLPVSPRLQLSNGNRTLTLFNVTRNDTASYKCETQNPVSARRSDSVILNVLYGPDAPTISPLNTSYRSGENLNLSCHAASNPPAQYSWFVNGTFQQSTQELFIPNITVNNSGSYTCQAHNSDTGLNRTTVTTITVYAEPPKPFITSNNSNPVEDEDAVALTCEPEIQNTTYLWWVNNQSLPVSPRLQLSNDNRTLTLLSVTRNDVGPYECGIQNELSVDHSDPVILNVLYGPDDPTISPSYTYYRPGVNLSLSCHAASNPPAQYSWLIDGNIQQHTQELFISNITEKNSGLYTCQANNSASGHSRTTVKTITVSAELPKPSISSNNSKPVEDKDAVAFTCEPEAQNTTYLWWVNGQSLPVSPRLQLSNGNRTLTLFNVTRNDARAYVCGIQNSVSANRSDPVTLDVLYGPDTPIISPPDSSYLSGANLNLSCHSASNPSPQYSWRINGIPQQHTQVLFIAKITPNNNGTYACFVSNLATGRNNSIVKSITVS
T1 sequence (P06731 145-675, stated change not applied, one chain of several): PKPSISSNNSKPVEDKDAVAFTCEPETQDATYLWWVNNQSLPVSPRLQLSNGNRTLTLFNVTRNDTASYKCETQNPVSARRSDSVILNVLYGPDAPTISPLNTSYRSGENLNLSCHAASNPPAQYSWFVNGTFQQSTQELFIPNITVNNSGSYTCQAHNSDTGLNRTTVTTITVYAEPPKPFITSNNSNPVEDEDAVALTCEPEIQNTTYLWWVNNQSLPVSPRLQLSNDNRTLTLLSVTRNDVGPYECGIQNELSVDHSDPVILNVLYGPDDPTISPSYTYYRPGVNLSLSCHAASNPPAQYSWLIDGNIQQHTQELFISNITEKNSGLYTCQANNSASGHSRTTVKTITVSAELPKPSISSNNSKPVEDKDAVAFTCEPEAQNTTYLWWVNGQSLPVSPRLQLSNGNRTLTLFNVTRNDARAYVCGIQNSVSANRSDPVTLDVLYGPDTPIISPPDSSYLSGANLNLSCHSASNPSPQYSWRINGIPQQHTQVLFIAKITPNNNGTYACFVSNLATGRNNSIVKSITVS

## NCEA (protein consisting of N domain to B3 domain of CEA, CEACAM5) cloned in the pM vector as a GAL4 DNA-BD fusion (from UniProt P04386 1-147; P06731 35-676)
[1]
  SEAP activity in the medium of transfected cells (mammalian two-hybrid system): 2.5 fold

B1: GROUP I RNA aptamer (ssRNA)
RNA: GGGAGAGCGGAAGCGUGCUGGGCUAGAAUAAUAAUAAGAAAACCAGUACUUUCGUGUCCCGGGAGGGUGCAUAACCCAGAGGUCGAUGGAUCC
modifications: 2'-F pyrimidines (C and U)
[2]
  Kd: 3.22 nM
[3]
  Kd: 0.313 nM

## GUGCUGGGCUAGGGCGGCGGCGGGAAAACCAGUAC (ssRNA, 2'-F pyrimidines (C and U)) [Mutant GROUP 1-2 (m19-2)]
[4]
  Kd: 630 nM
[5]
  Kd: 420 nM

## GCGGAAGCGUGCUGGGCUAGGGCGGCGGCGGGAAAACCAGUACUUUCGU (ssRNA, 2'-F pyrimidines (C and U)) [Mutant GROUP 1-1 (m19-1, mutant YJ-1)]
[4]
  Kd: 790 nM
[5]
  Kd: 1300 nM

## GUGCUGGGCUAGAAUAAUAAUAAGAAAACCAGUAC (ssRNA, 2'-F pyrimidines (C and U)) [Truncated GROUP 1-2 (19-2)]
[4]; hairpin-loop (predicted)
  Kd: 590 nM
[6]
  Kd: 4 nM

## GCGGAAGCGUGCUGGGCUAGAAUAAUAAUAAGAAAACCAGUACUUUCGU (ssRNA, 2'-F pyrimidines (C and U)) [Truncated GROUP 1-1 (19-1, YJ-1)]
[4]; hairpin-loop (predicted)
  Kd: 600 nM
[6]
  Kd: 0.77 nM

## GGCUAGAAUAAUAAUAAGAAAAC (ssRNA, 2'-F pyrimidines (C and U)) [Loop only]
[4]
  Kd: 1100 nM
